The target of the assay is human platelets (CD61 APC-positive gate P1). Nature of the assay: flow cytometry on diluted human whole blood, platelets gated as CD61 APC-positive (P1), PE goat anti-human IgG Fc secondary [panel hIgG4 iso : P1]. In general terms: Flow cytometry measures light scatter and fluorescence of single cells or particles in a stream.

With hIgG4-isotype control (antibody), the V2R (% of CD61-positive P1 events right of the PE gate) came to 0.11%.
